Experiment [1] deals with T1, transferrin (human, UniProt P02787 20-698). As to the kind of experiment: SPR.
Experiment [2] addresses T1, transferrin. As to the kind of experiment: native gel or EMSA. On the technique in general: In EMSA bound probe runs differently from free probe, usually more slowly.

T1 sequence (P02787 20-698): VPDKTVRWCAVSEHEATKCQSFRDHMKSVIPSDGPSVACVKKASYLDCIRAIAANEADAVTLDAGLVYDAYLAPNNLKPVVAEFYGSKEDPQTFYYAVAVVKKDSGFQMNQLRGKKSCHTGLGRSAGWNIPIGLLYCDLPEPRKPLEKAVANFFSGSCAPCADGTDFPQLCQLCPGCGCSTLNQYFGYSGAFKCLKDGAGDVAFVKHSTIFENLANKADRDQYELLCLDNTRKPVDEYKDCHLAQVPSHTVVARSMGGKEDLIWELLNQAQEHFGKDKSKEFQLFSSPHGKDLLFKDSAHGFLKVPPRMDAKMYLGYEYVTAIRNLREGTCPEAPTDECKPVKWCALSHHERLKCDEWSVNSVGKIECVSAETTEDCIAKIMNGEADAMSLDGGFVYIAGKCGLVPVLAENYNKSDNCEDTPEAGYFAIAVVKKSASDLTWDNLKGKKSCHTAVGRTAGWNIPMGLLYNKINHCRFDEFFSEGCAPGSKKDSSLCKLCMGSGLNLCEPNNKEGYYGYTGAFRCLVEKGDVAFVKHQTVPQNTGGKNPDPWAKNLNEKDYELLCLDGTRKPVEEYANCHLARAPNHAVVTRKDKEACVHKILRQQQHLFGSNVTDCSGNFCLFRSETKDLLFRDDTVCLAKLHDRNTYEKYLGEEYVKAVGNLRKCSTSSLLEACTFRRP

A word on the Kd: it is the concentration at which binding is half-saturated. In general, koff refers to the rate constant with which the complex falls apart. Lower therefore signals a long-lived complex. For orientation: kon means a measure of how fast the partners come together. Low readings indicate slow association, high ones fast association. As to “CD14 (SEA518Mu-48T, Uscn) (from UniProt P08571 20-345) (natural protein)”, in the experiment with transferrin [1], the Kd is 14 nM, the koff is 0.00033 s⁻¹ and the on-rate (kon) came to 24000 M⁻¹ s⁻¹.

B1: human CD14 (natural protein, UniProt P08571 20-345, looked up)
chain: TTPEPCELDDEDFRCVCNFSEPQPDWSEAFQCVSAVEVEIHAGGLNLEPFLKRVDADADPRQYADTVKALRVRRLTVGAAQVPAQLLVGALRVLAYSRLKELTLEDLKITGTMPPLPLEATGLALSSLRLRNVSWATGRSWLAELQQWLKPGLKVLSIAQAHSPAFSCEQVRAFPALTSLDLSDNPGLGERGLMAALCPHKFPAIQNLALRNTGMETPTGVCAALAAAGVQPHSLDLSHNSLRATVNPSAPRCMWSSALNSLNLSFAGLEQVPKGLPAKLRVLDLSCNRLNRAPQPDELPEVDNLTLDGNPFLVPGTALPHEGSMN
For B1, the binding result in the experiment with transferrin [2] was “binds”.

Turning to ELDDEDFRCVCNFSEPQPDWSEAFQCVSAVEVEIHAGGLN [LPS binding region of CD14 N-terminus (CD14N)], in the experiment with transferrin [1], the binding result is given as “binds”.
